Data from patent publication US20070116718A1.

What was measured:
[1] = target: single-chain MHC class II I-A^d complex with OVA 323-339 peptide, immobilized (chicken; murine) (UniProt P01012); test: cell-based or functional assay
[2] = target: bacteriophage displaying the DO11.10 scTCR/gene VIII fusion protein (vector pKC51) (murine; fd tet bacteriophage); test: phage panning on biotin antibody on neutrAvidin wells, phage diluted 1:50,000 in irrelevant phage
bacteriophage displaying the DO11.10 scTCR/gene VIII fusion protein (vector pKC51) (murine; fd tet bacteriophage), sequence (main, as listed by the source): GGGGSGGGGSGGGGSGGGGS

| Substance | level of IL-2 inhibition, DO11.10 group against gD12 hybridoma group [1] [fold] | fold enrichment after a single round of panning [2] [fold] |
| --- | --- | --- |
| bacteriophage displaying the DO11.10 scTCR/gene VIII fusion protein (vector pKC51) | 8 to 10 | – |
| hamster anti-mouse αβ TCR antibody H57-597 (ATCC HB-218) | – | 5000 |
| anti-V-β8.2 monoclonal antibody MR5-2 (PharMingen) | – | 5000 |
